Assay results reported in doi:10.1101/2020.08.28.272104.

Target: triple-helical collagen peptide Ac-(GPO)2-GPO-GPQ-GLA-GQR-GIV-GLO-GQR-GER-(GPO)3G-NH2
Test: ITC

Kd: 250 to 500 nM
stoichiometry N: 1
Substance: MMP-1(E200A), active-site mutant of matrix metalloproteinase 1 (enzyme)
